Source: paper PMC9870083

Target: RARα (UniProt P10276)
Test: Flag IP of RARα, GFP-p65 blot
Settings: reference: GFP-p65 wild type; sites S276

RelA/p65 (from UniProt Q04206) GFP-p65-S276A
binding against the reference: lost
